US20170035908A1

Tests used:
[1] = target: PAM4 antigen (pancreatic cancer mucin, CaPan1 human pancreatic tumor); assay: ELISA on target mucin antigen (FIG. 9)
[2] = target: PAM4 antigen (pancreatic cancer mucin, CaPan1 human pancreatic tumor); assay: radioiodinated TF10 mixed with mucin (not shown)
[3] = target: IMP-288 di-HSG hapten-peptide, DOTA-D-Tyr-D-Lys(HSG)-D-Glu-D-Lys(HSG)-NH2; assay: 111In-IMP-288 mixed with TF10, elution analysis (not shown)
[4] = target: PAM4 antigen (pancreatic cancer mucin, CaPan1 human pancreatic tumor); assay: TF10/111In-IMP-288 complex mixed with excess mucin, elution analysis

| Substance | EC50 [1] [nM] | immunoreactive fraction [2] [%] | percent of peptide bound [3] [%] | percent of TF10-bound IMP-288 eluting at higher molecular weight with excess mucin [4] [%] |
| --- | --- | --- | --- | --- |
| PAM4-F(ab′)2 | 1.83 | – | – | – |
| TF10 bispecific ([hPAM4]2 x h679) DNL construct (bispecific antibody) | 1.42 | 87 | 90 | 92 |
